Measured values published in US20180362643A1 (Amgen, published 2018).
Ends that are not written are not given here.

Key:
[1] = target: T1, PACAP38 peptide fragment 34-38 (human, ends and bridges not checked); test: SPR (Biacore 3000) solution competition: antibody pre-incubated 1:200 with the fragment, then injected over immobilised PACAP38
T1 construct: also called peptide No. 17; RVKNK
T1 peptide: RVKNK
Method: (§1) In this experiment, various peptide fragments of PACAP38 were incubated with each of the six antibodies (mAb1, mAb2, mAb3, mAb4, mAb5, and mAb6) described in Example 2 and evaluated for their ability to inhibit binding of the antibodies to full-length PACAP38 immobilized on the sensor-chip. The binding epitopes for each of the antibodies were deduced from the set of peptides that were able to inhibit the binding of each antibody to full-length PACAP38.
(§2) Each of the six anti-PACAP antibodies was incubated at a 1:200 molar ratio (Ab: peptide fragment) with each of the peptide fragments in Table 9 at an ambient temperature for 2 hours prior to analysis. […] A second control containing 6.5 nM antibody was prepared in sample diluent to be used as the untreated control sample for each antibody. Full-length PACAP38, buffer, and each peptide fragment were also tested to evaluate non-specific binding to the immobilized PACAP38 surface.

[2] = target: T2, PACAP38 peptide fragment 27-38 (human, ends and bridges not checked); test: SPR (Biacore 3000), solution competition: antibody pre-incubated 2 h with the peptide at 1:200 molar ratio (Ab:peptide), then injected over immobilised full-length PACAP38; readout % inhibition of antibody binding (filing counts >50 % as reactive)
T2 construct: also called peptide No. 6
T2 peptide: LGKRYKQRVKNK

[3] = target: T3, PACAP38 peptide fragment 4-27 (human); test: as above
T3 construct: also called peptide No. 9
T3 peptide: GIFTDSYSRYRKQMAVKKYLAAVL

[4] = target: T4, PACAP38 peptide fragment 6-35 (human); test: SPR (Biacore 3000) solution competition: antibody pre-incubated 1:200 with the fragment, then injected over immobilised PACAP38
T4 construct: also called peptide No. 4
T4 peptide: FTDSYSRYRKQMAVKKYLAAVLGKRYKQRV
Method: as §1, §2

[5] = target: T5, PACAP38 peptide fragment 14-38 (human, not fully specified); test: as above
T5 construct: also called peptide No. 7
T5 peptide: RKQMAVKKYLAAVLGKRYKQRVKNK
Method: as §1, §2

[6] = target: T3, PACAP38 peptide fragment 4-27; test: as above
Method: as §1, §2

[7] = target: T6, PACAP38 peptide fragment 11-27 (human); test: as above
T6 construct: also called peptide No. 8
T6 peptide: SRYRKQMAVKKYLAAVL
Method: as §1, §2

B1: mAb2 (antibody, V domains shown)
VH: QSLEESGGGLVQPEGSLTLTCTASGFSFNSSSYMCWVRQAPGKGLEWIGCIFTGSSGNTYYATWAQGRFTISKTSTTVTLEMTSLTAADTATYFCARDRAYFLVGYFYATYYFDLWGPGTLVTVSS
VL: DVVMTQTPSPVSAQVGGTVTINCQASESIDSDLSWYQQKPGQPPKLLIYRTFTLESGVPSRFKGSGSGTDYTLTISDLECADAAIYYCQCTDGSSISGSYGWDAFGGGTEVVVKG
notes: Rabbit monoclonal antibody (SLAM), recombinant; also called monoclonal anti-PACAP antibody 2; 2 (c81)
- binding result [1]: binds
- binding result [2]: binds

B2: mAb6 (antibody, V domains shown)
VH: QLEESGGGLVQPGASLTLTCTTSGFSLSDNYLCWVRQAPGRGLEWVACIGIVLRSTGATYYASWAEGRFTISKTSPTTVTLEMTSLTAADTATYFCALDLGYGGPLWGPGTLVTVSS
VL: AQVLTQTPASVSAAVGGTVTINCQASQSVYNNKNLAWYQQKPGQPPKLLIYFSSTLASGVPSRFRGSGSGTQFTLTISGVQCGDAATYYCLGEFGSIWAFGGGTEVVVKG
notes: Rabbit monoclonal antibody (SLAM), recombinant; also called monoclonal anti-PACAP antibody 6; 6 (c55)
- binding result [3]: binds

B3: mAb5 (antibody, V domains shown)
VH: QSVEESGGRLVTPGTPLTLTCTVSGFSLSTYNMCWVRQAPGKGLEWVGFINSDDSAYYASWAKGRFTFSKTSTTVDLKIASPTTEDTATYFCARYDWDYYYSRLDLWGPGTLVTVSS
VL: DIVLTQTPASVSAAVGGTVSISCQSSESVYNNNYLSWFQQKPGQPPKLLIYGASTLASGVPSRFEGSGSGTQFTLTISDVQCDDAATYYCLGDYIIIENIFGGGTEVVVKG
notes: Rabbit monoclonal antibody (SLAM), recombinant; also called monoclonal anti-PACAP antibody 5; 5 (c71)
- binding result [4]: binds
- binding result [5]: binds
- binding result [6]: binds
- binding result [7]: binds
